For orientation: Kd means the free concentration of one partner at which half of the binding sites on the other are occupied at equilibrium, for simple one-to-one binding. A low value points to tighter binding. One may read the koff as the first-order rate constant of dissociation. In general, kon refers to the second-order rate constant of association. A lower kon goes with slower complex formation.

Where a chain is given by its changes, count along the chain named.

The source of these data is patent US20230265198A1 (TWIST BIOSCIENCE, published 2023).

For experiment [1], the target named is neuropilin-1 (NRP1) on HEK293 cells overexpressing NRP1 (UniProt O14786). In words: flow cytometry, HEK293-NRP1 vs HEK293. A general note: A flow cytometer gives signals particle by particle.
Experiment [2] concerns the target neuropilin-1 (NRP1), analyte in SPR (UniProt O14786 22-644, limits assumed). In words: SPR, Carterra LSA, antibody coupled. The procedure:
SPR experiments were performed on a Carterra LSA SPR biosensor equipped with a HC30M chip at 25° C. in HBS-TE. Antibodies were diluted to 10 μg/mL and amine-coupled to the sensor chip by EDC/NHS activation, followed by ethanolamine HCl quenching. Increasing concentrations of analyte were flowed over the sensor chip in HBS-TE with 0.5 mg/mL BSA with 5-minute association and 15-minute dissociation. Following each injection cycle the surface was regenerated with 2× 30-second injections of IgG elution buffer (Thermo). Data were analyzed in Carterra's Kinetics Tool software with 1:1 binding model.

Experiment [3] concerns the target T1, neuropilin-1 (NRP1) on HEK293 cells overexpressing NRP1 (UniProt O14786 22-923, limits assumed).
T1 construct: whole, on cells
In words: flow cytometry, HEK293-NRP1 vs HEK293.

B1: NRP1-53 (VHH)
VHH: EVQLVESGGGLVQPGGSLRLSCAASGRTFNRYPMGWFRQAPGKEREWVAAITPQGVPNYADSVKGRFTISADNSKNTAYLQMNSLKPEDTAVYYCAIHTSREIWGQGTLVTVSS
Take B1: in experiment [1], the 100 nM FACS (MFI Ratio) stood at 1.9.

B2: NRP1-58 (VHH)
VHH: B1 VHH with A50G, T52N, P53S, Q54G, V56G, P57T, N58W
Consider B2, for which the 100 nM FACS (MFI Ratio) in experiment [1] came out at 1.9.

B3: NRP1-121 (antibody, IgG2, V domains shown)
VH: QVQLVQSGAEVKKPGSSVKVSCKASGGTFSNYAISWVRQAPGQGLEWMGGIIPINYAQKFQGRVTITADESTSTAYMELSSLRSEDTAVYYCVRRVVGATPFDYWGQGTLVTVSS
VL: DIQMTQSPSSLSASVGDRVTITCRASQIIRRYLNWYQQKPGKAPKLLIYPASSLQSGVPSRFSGSGSGTDFTLTISSLQPEDFATYYCQQAYSTPMFGQGTKVEIK
For B3, in experiment [1], the 100 nM FACS (MFI Ratio) was 1.5.

B4: NRP1-105 (VHH)
VHH: EVQLVESGGGLVQPGGSLRLSCAASGTTFRINVMGWFRQAPGKERELVAAMRWSSSSTDYADSVKGRFTISADNSKNTAYLQMNSLKPEDTAVYYCAASIEGVSGRWGQGTLVTVSS
Consider B4, for which the 100 nM FACS (MFI Ratio) in experiment [1] turned out to be 1.8.

B5: NRP1-43 (VHH)
VHH: EVQLVESGGGLVQPGGSLRLSCAASGYFASWYYMGWFRQAPGKEREWVATIYSPSGSAVYADSVKGRFTISADNSKNTAYLQMNSLKPEDTAVYYCARDSFYDGSGYSPWGQGTLVTVSS
Take B5: the 100 nM FACS (MFI Ratio) in experiment [1] stood at 1.5.

B6: NRP1-44 (VHH)
VHH: EVQLVESGGGLVQPGGSLRLSCAASGRSFSTYIMGWFRQAPGKERELVARITSGGYTYADSVKGRFTISADNSKNTAYLQMNSLKPEDTAVYYCAADVSPSYGSRWYWGQGTLVTVSS
For the molecule B6, the 100 nM FACS (MFI Ratio) in experiment [1] was found to be 1.6.

B7: NRP1-62 (VHH)
VHH: EVQLVESGGGLVQPGGSLRLSCAASGSSLSNYTMGWFRQAPGKERELVATIWWTVGAPYYADSVKGRFTISADNSKNTAYLQMNSLKPEDTAVYYCAAYQRGWGDWGQGTLVTVSS
Turning to B7, the 100 nM FACS (MFI Ratio) in experiment [1] was determined as 1.5.

B8: NRP1-27 (VHH)
VHH: EVQLVESGGGLVQPGGSLRLSCAASGFRFGDYPMGWFRQAPGKEREFVSAISWSGGSTVYADSVKGRFTISADNSKNTAYLQMNSLKPEDTAVYYCALGPVRRSRLEWGQGTLVTVSS
Take B8: the binding result in experiment [2] is recorded as “no binding”. Moreover, in experiment [1], the 100 nM FACS (MFI Ratio) is 2.1.

B9: NRP1-233 (antibody, IgG2, V domains shown)
VH: EVQLLESGGGLVQPGGSLRLSCAASGFSFSTYAMTWVRQAPEKGLEWVSSIGGSGRSTYYADSVKGRFTISRDNSKNTLYLQMNSLRAEDTAVYYCARLKRGGTNLVRKATRYQFYGMDAWGQGTLVTVSS
VL: DIQMTQSPSSLSASVGDRVTITCRASQSISSYLAWYQQKPGKAPKLLIYAGSGLQSGVPSRFSGSGSGTDFTLTISSLQPEDFATYYCQQSFTSPLTFGGGTKVEIK
In the case of B9, the 100 nM FACS (MFI Ratio) in experiment [1] was 1.7.

B10: NRP1-245 (antibody, IgG2, V domains shown)
VH: EVQLLESGGGLVQPGGSLRLSCAASGLTFSRYAMSWVRQAPGKGLEWVSTISGRGGSTNYADSVKGRFTISRDNSKNTLYLQMNSLRAEDTAVYYCAKDSARFISPPRGIRIRGVVLSGFDSWGQGTLVTVSS
VL: B9 VL with S31T, Y32S, A34N, G51T, G53S, S91A, F92Y, T93S, S94T
As to B10, the 100 nM FACS (MFI Ratio) in experiment [1] was 2.

B11: NRP1-277 (antibody, IgG2, V domains shown)
VH: EVQLLESGGGLVQPGGSLRLSCAASGFRFSTYAMSWVRQAPGKGLEWVSTVSGSGAYTYYADSVKGRFTISRDNSKNTLYLQMNSLRAEDTAVYYCADIAVAGTWGQGTLVTVSS
VL: B9 VL with S28R, S31D, A34N, G51A, G53T, T93S, S94T, L96I
For B11, the 100 nM FACS (MFI Ratio) in experiment [1] came out at 1.5.

B12: NRP1-251 (antibody, IgG2, V domains shown)
VH: EVQLLESGGGLVQPGGSLRLSCAASGSTFSSHAMSWVRQAPGKGLEWVSGISASGGSTHYADSVKGRFTISRDNSKNTLYLQMNSLRAEDTAVYYCARLKRGGTNLVRKATRYQFYGMDAWGQGTLVTVSS
VL: B9 VL with I29V, Y32H, A34N, A50D, G51A, G53S, F92Y, T93K, S94T, L96V
B12: in experiment [1], the 100 nM FACS (MFI Ratio) amounted to 1.5.

B13: NRP1-253 (antibody, IgG2, V domains shown)
VH: EVQLLESGGGLVQPGGSLRLSCAASGFTFSNHAMSWVRQAPGKGLEWVSTISGSGGSTYYVDSVKGRFTISRDNSKNTLYLQMNSLRAEDTAVYYCARGGPAPLFDYWGQGTLVTVSS
VL: B9 VL with A25S, A34N, G51A, G53N, L54F, S91T, F92Y, T93S, S94I
Take B13: the 100 nM FACS (MFI Ratio) in experiment [1] was 1.5.

B14: NRP1-84 (VHH)
VHH: EVQLVESGGGLVQPGGSLRLSCAASGRTFSNYKMGWFRQAPGKEREFVARIFTDDGDSYYADSVKGRFTISADNSKNTAYLQMNSLKPEDTAVYYCAKWDGLGTLWGQGTLVTVSS
For B14, the 100 nM FACS (MFI Ratio) in experiment [1] stood at 1.7.

B15: NRP1-263 (antibody, IgG2, V domains shown)
VH: EVQLLESGGGLVQPGGSLRLSCAASGFTFKKYAMSWVRQAPGKGLEWVSTISGSGRSTYYADSVKGRFTISRDNSKNTLYLQMNSLRAEDTAVYYCARDLARGTMPRGVIIPHNWFDPWGQGTLVTVSS
VL: DIQMTQSPSSLSASVGDRVTITCRASQTISNYLNWYQQKPGKAPKLLIYGATSLQSGVPSRFSGSGSGTDFTLTISSLQPEDFATYYCQQSYNTPTTFGGGTKVEIK
For B15, the 100 nM FACS (MFI Ratio) in experiment [1] is 1.9.

B16: NRP1-296 (antibody, IgG2, V domains shown)
VH: EVQLLESGGGLVQPGGSLRLSCAASGFTFSGHAMSWVRQAPGKGLEWVSGISGSGGKIYYADSVKGRFTISRDNSKNTLYLQMNSLRAEDTAVYYCTRDVRSKDYVRGSSRYHGGMDVWGQGTLVTVSS
VL: B15 VL with Q27H, T28S, N31R, G50S, T52S, Q55R, S91R, N93I, T96W
With B16, the 100 nM FACS (MFI Ratio) in experiment [1] turned out to be 1.5.

B17: NRP1-297 (antibody, IgG2, V domains shown)
VH: EVQLLESGGGLVQPGGSLRLSCAASGFTFGRYAMSWVRQAPGKGLEWVSSISGSGGSTYYTDSVKGRFTISRDNSKNTLYLQMNSLRAEDTAVYYCVRALAGRRDHWGQGTLVTVSS
VL: B15 VL with A25T, T28R, N31T, Y32S, T52S, S53N, V58A, N93F, T96I
In the case of B17, the 100 nM FACS (MFI Ratio) in experiment [1] is 1.6.

B18: NRP1-269 (antibody, IgG2, V domains shown)
VH: EVQLLESGGGLVQPGGSLRLSCAASGFTFSNYVMTWVRQAPGKGLEWVSTISGSGGGTFYADSVKGRFTISRDNSKNTLYLQMNSLRAEDTAVYYCATDTVWASAWGSWGQGTLVTVSS
VL: B15 VL with S30R, N31K, G50A, T52S, L78M, N93S, T96I
Consider B18, for which the 100 nM FACS (MFI Ratio) in experiment [1] is 1.9.

B19: NRP1-33 (VHH)
VHH: EVQLVESGGGLVQPGGSLRLSCAASGRTFSSGTMGWFRQASGKEREFVARINSDGSTNYADSVKGRFTISADNSKNTAYLQMNSLKPEDTAVYYCAKWSSSWYGYYYYGMDVWGQGTLVTVSS
For the molecule B19, in experiment [2], the Kd was found to be 10.8 nM, the off-rate constant (koff) was determined as 0.0167 s⁻¹ and the kon was found to be 1.55e+06 M⁻¹ s⁻¹. In addition, the “100 nM FACS (MFI Ratio)” value in experiment [3] is 335.

B20: NRP1-35 (VHH)
VHH: EVQLVESGGGLVQPGGSLRLSCAASGSIFSFNAMGWFRQAPGKERELVASITPGGNINYADSVKGRFTISADNSKNTAYLQMNSLKPEDTAVYYCARDVEGGWYGLSYGMDVWGQGTLVTVSS
Regarding B20, in experiment [2], the binding result is listed as “no binding”. Further, the “100 nM FACS (MFI Ratio)” value in experiment [3] amounted to 2.9.

B21: NRP1-82 (VHH)
VHH: EVQLVESGGGLVQPGGSLRLSCAASGRTFNRYPMGWFRQAPGKEREWVSAINSNGNRYYYADSVKGRFTISADNSKNTAYLQMNSLKPEDTAVYYCAIHTSREIWGQGTLVTVSS
Take B21: in experiment [1], the 100 nM FACS (MFI Ratio) amounted to 2.

B22: NRP1-70 (VHH)
VHH: EVQLVESGGGLVQPGGSLRLSCAASGDTFSRYTMGWFRQAPGKEREFVATIWWTFDAPYYADSVKGRFTISADNSKNTAYLQMNSLKPEDTAVYYCAARSPMSPTWDWGQGTLVTVSS
As to B22, the 100 nM FACS (MFI Ratio) in experiment [1] turned out to be 1.9.
